Measurements reported in publication PMC11357854, “Molecular insights into the regulatory landscape of PKC-related kinase-2 (PRK2/PKN2) using targeted small compounds” (The Journal of Biological Chemistry, 2024).
Blank lines part the entries; values can stand above or below the binder they belong to. No end group written: not given here. *: point of attachment. Biotin = O=C1N[C@H]2[C@H](CS[C@H]2CCCCC(=O)*)N1

B1: His-PDK1_(1-556) (enzyme, UniProt O15530 1-556, looked up)
chain: MARTTSQLYDAVPIQSSVVLCSCPSPSMVRTQTESSTPPGIPGGSRQGPAMDGTAAEPRPGAGSLQHAQPPPQPRKKRPEDFKFGKILGEGSFSTVVLARELATSREYAIKILEKRHIIKENKVPYVTRERDVMSRLDHPFFVKLYFTFQDDEKLYFGLSYAKNGELLKYIRKIGSFDETCTRFYTAEIVSALEYLHGKGIIHRDLKPENILLNEDMHIQITDFGTAKVLSPESKQARANSFVGTAQYVSPELLTEKSACKSSDLWALGCIIYQLVAGLPPFRAGNEYLIFQKIIKLEYDFPEKFFPKARDLVEKLLVLDATKRLGCEEMEGYGPLKAHPFFESVTWENLHQQTPPKLTAYLPAMSEDDEDCYGNYDNLLSQFGCMQVSSSSSSHSLSASDTGLPQRSGSNIEQYIHDLDSNSFELDLQFSEDEKRLLLEKQAGGNPWHQFVENNLILKMGPVDKRKGLFARRRQLLLTEGPHLYYVDPVNKVLKGEIPWSQELRPEAKNFKTFFVHTPNRTYYLMDPSGNAHKWCRKIQEVWRQRYQSHPDAAVQ
notes: also called full-length PDK1; His-PDK1 FL; source: Sf9 (Bac-to-Bac), purified (nickel-nitrilotriacetic acid, gel filtration)
B2: His-PDK1_(50-359) (domain or fragment, UniProt O15530 50-359, looked up)
chain: AMDGTAAEPRPGAGSLQHAQPPPQPRKKRPEDFKFGKILGEGSFSTVVLARELATSREYAIKILEKRHIIKENKVPYVTRERDVMSRLDHPFFVKLYFTFQDDEKLYFGLSYAKNGELLKYIRKIGSFDETCTRFYTAEIVSALEYLHGKGIIHRDLKPENILLNEDMHIQITDFGTAKVLSPESKQARANSFVGTAQYVSPELLTEKSACKSSDLWALGCIIYQLVAGLPPFRAGNEYLIFQKIIKLEYDFPEKFFPKARDLVEKLLVLDATKRLGCEEMEGYGPLKAHPFFESVTWENLHQQTPPKLT
notes: also called catalytic domain of PDK1; source: Sf9 (Bac-to-Bac), purified (nickel-nitrilotriacetic acid, gel filtration)
B5: GST-PRK2_(643-984) WT (domain or fragment)
chain: not shown
modifications: phosphorylated at the activation loop (Thr816 in PRK2)
notes: PKC-related kinase 2 (PRK2/PKN2), catalytic domain with the C-terminal PIF/HM region, lacking the N-terminal 642 residues; also called isolated catalytic domain of PRK2; GST-PRK2 CD WT; source: HEK293T, transient transfection (pEBG2T-derived plasmid), purified
B6: GST-PRK2_(643-984) [T958A] (domain or fragment)
chain: not shown
modifications: phosphorylated at the activation loop (Thr816 in PRK2)
notes: source: HEK293T, transient transfection (pEBG2T-derived plasmid), purified

Key:
Details in all cases: both partners purified
[1] = biological target: T1, GST-PRK2_(1-984) [T958A] (UniProt Q16513 1-984, T958A, phosphorylated at the activation loop (Thr816 in PRK2)); test: AlphaScreen or HTRF; competitive displacement of His-PDK1 / GST-PRK2 [T958A] complexes by varied PIFtide; 30 to 40 nM PDK1 versus 5 to 10 nM PRK2; nickel chelate acceptor beads and glutathione donor beads
T1 construct: also called full-length PRK2 T958A; source: HEK293T, transient transfection (pEBG2T-derived plasmid), purified

[2] = biological target: T2, GST-PRK2_(1-984) WT (UniProt Q16513 1-984, phosphorylated at the activation loop (Thr816 in PRK2)); test: AlphaScreen or HTRF; His-PDK1 fixed at 20 nM against varied GST-PRK2 constructs; nickel chelate acceptor beads and glutathione donor beads; 50 mM Tris-HCl pH 7.4 (or 20 mM Hepes pH 7.5), 100 mM NaCl, 1 to 2 mM DTT, 0.01% Tween 20, 0.1% BSA; 90 min at room temperature
T2 construct: also called full-length PRK2; PKN2; source: HEK293T, transient transfection (pEBG2T-derived plasmid), purified

[3] = biological target: B5; test: AlphaScreen or HTRF; His-PDK1 and GST-PRK2 at fixed concentrations (30 to 50 nM PDK1, 5 to 50 nM PRK2) with varied small compounds (PS210, GSK2334470, UCN-01, Y-27632); nickel chelate acceptor beads and glutathione donor beads
[4] = biological target: B6; test: as above
[5] = biological target: B2; test: AlphaScreen or HTRF; competitive displacement of His-PDK1 / GST-PRK2 [T958A] complexes by varied PIFtide; 30 to 40 nM PDK1 versus 5 to 10 nM PRK2; nickel chelate acceptor beads and glutathione donor beads
[6] = biological target: B1; test: as above
[7] = biological target: B2; test: AlphaScreen or HTRF; His-tagged PDK1 construct (30 nM) and biotin-PIFtide (Cys → Ser; 10 or 30 nM), cross-titration and displacement by small compounds; nickel chelate and streptavidin-coated beads
[8] = biological target: T3, His-PDK1_(50-359) [PRK2-pocket] (UniProt O15530 50-359, K76Q | I119V | V127L | T128M | R131K | T148C | L155V); test: as above
T3 construct: also called PDK1 [PRK2-pocket]; His-PDK1 [PIF-pocket PRK2]; source: Sf9 (Bac-to-Bac), purified (nickel-nitrilotriacetic acid, gel filtration)
T3 sequence (looked up): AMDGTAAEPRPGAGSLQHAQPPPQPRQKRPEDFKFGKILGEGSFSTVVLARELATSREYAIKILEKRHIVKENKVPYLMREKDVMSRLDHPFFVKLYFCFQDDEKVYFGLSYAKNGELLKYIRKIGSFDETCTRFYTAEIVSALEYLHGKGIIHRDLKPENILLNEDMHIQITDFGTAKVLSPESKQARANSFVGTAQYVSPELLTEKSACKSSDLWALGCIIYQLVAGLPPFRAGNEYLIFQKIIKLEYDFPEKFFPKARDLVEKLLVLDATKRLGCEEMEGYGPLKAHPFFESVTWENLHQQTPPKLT

[9] = biological target: B1; test: AlphaScreen or HTRF; His-PDK1 fixed at 20 nM against varied GST-PRK2 constructs; nickel chelate acceptor beads and glutathione donor beads; 50 mM Tris-HCl pH 7.4 (or 20 mM Hepes pH 7.5), 100 mM NaCl, 1 to 2 mM DTT, 0.01% Tween 20, 0.1% BSA; 90 min at room temperature
[10] = biological target: B5; test: AlphaScreen or HTRF; GST-PRK2_(643-984) (1.5 nM) and biotin-PKLtide (75 nM) with varied compounds or 5% DMSO; anti-GST-coated acceptor beads and streptavidin-coated donor beads

Binder: B1
binding result [1]: binds | binding result [2]: binds

Binder: B2
binding result [1]: binds | binding result [3]: binds | binding result [4]: binds | binding result [2]: binds

binding result [5]: binds | binding result [6]: binds
B3: PIFtide (peptide)
peptide: REPRILSEEEQEMFRDFDYIADWC
notes: also called polypeptide PIF; HM polypeptide derived from the C terminus of PRK2; source: synthetic peptide (JPT Peptide Technologies)

binding result [7]: binds | binding result [8]: binds
B4: biotin-PIFtide (Cys → Ser) (peptide)
peptide: Biotin-REPRILSEEEQEMFRDFDYIADWS
notes: PIFtide, C-terminal region of PRK2, with the last Cys replaced by Ser; source: synthetic peptide (Pepscan)

Binder: B5
binding result [9]: binds

Binder: B6
binding result [6]: binds

binding result [10]: binds
B7: biotin-PKLtide (peptide)
peptide: Biotin-PKLQRQKKIFSKQQG
notes: polypeptide comprising the pseudosubstrate PKL region of PRK2; source: synthetic peptide (JPT Peptide Technologies)
